Experimental data: patent US7893027B2, “Treatment of ocular wounds and ulcers” (The Board of Regents of the University of Oklahoma, priority 2002, dated 2011)

Experiments:
Type in all cases: cell-based, human
αv β 3 (CD51/CD61) = experiment: Flow cytometry of integrin expression on HCEC
Experimental: (§1) Flow cytometry was used to assess the upregulation of PECAM-1 (CD31), and the integrin molecules β1 (CD29), β2 (CD18), β3 (CD61), β4 (CD104), α1 (CD49a), α2 (CD49b), α3 (CD49c), α4 (CD 49d), and αv (CD51). Human corneal epithelial cells were cultured as above and treated with CAP37 (0-2000 ng/ml) for 0-72 hr. A corresponding culture was left untreated at each time point. Following treatment with CAP37, cells were detached with 0.25% trypsin in 1 mM EDTA (pH 7.4, FISHER SCIENTIFIC, Pittsburgh, Pa.), washed twice in PBS and fixed with 0.125% paraformaldehyde (J.T. BAKER, Phillipsburg, N.J.) overnight at 4° C. The cells were washed in PBS and then incubated in 0.5% normal goat serum and 0.5% bovine serum albumin (BSA) in PBS for 30 min to block non-specific binding sites. Cells were incubated in the primary antibody (at concentrations described below) at 4° C. for 1 hr followed by the secondary antibody (FITC-goat anti-mouse IgG, PHARMINGEN, San Diego, Calif.) at 0.5 μg/10^6 cells and incubated at 4° C. for 30 min. The isotype control for these studies was FITC-labeled mouse isotype IgG1 (PHARMINGEN). The cells were analyzed by flow cytometry (FACS Calibur, BECTON DICKINSON, San Jose, Calif.). At least ten thousand cells were analyzed for each sample.
(§2) The primary antibodies and the concentrations used in the flow cytometry experiments are as follows: mouse anti-human PECAM-1 (CD31) monoclonal antibody clone HEC7 (0.5 μg/10^6 cells, ENDOGEN, Woburn, Mass.), mouse anti-human very late antigen 1α (VLA-1α, or CD49a) monoclonal antibody clone SR84 (0.5 μg/10^6 cells, PHARMINGEN), mouse anti-human VLA-α2 (CD49b) monoclonal antibody clone AK-7 (0.125 μg/10^6 cells, PHARMINGEN), mouse anti-human α3 (CD49c) monoclonal antibody clone C3II.1 (0.125 μg/10^6 cells, PHARMINGEN), mouse anti-human VLA-4 (α4) monoclonal antibody clone 2B4 (1 μg/10^6 cells, R & D systems, Minneapolis, Minn.), mouse anti human α5 (CD49e) monoclonal antibody clone VC5 (0.125 μg/10^6 cells, PHARMINGEN), mouse anti-human β1 (CD29) monoclonal antibody MAR4 (2 μg/10^6 cells, PHARMINGEN), mouse anti human β2 integrin (CD18) monoclonal antibody clone 6.7 (0.5 μg/10^6 cells, PHARMINGEN), mouse anti human αvβ3 (CD51/CD61) monoclonal antibody clone 23C6 (0.5 μg/10^6 cells, PHARMINGEN), and mouse anti human integrin β4 (CD104) monoclonal antibody clone 450-11A (1.0 μg/10^6 cells, PHARMINGEN). A purified mouse IgG1 κ monoclonal immunoglobulin isotype standard (clone MOPC-31C) was used as the isotype matched control in the flow cytometry experiments.

α4 (CD49d) = experiment: Flow cytometry of integrin expression on HCEC
Experimental: as §1, §2

α1 (CD49a; VLA-α1) = experiment: Flow cytometry of integrin expression on HCEC
Experimental: as §1, §2

α3 (CD49c) = experiment: Flow cytometry of integrin expression on HCEC
Experimental: as §1, §2

α2 (CD49b; VLA-α2) = experiment: Flow cytometry of integrin expression on HCEC
Experimental: as §1, §2

β 1 (CD29) = experiment: Flow cytometry of integrin expression on HCEC
Experimental: as §1, §2

β 4 (CD104) = experiment: Flow cytometry of integrin expression on HCEC
Experimental: as §1, §2

β 2 (CD18) = experiment: Flow cytometry of integrin expression on HCEC
Experimental: as §1, §2

PECAM-1 = experiment: RT-PCR of adhesion molecule mRNA in HCEC; conditions: CAP37 1 μg/ml
Experimental: (§3) Cultured HCEC were treated with CAP37 (1 μg/ml) for 0-24 hr at 37° C. Total cellular RNA was isolated from untreated and treated HCEC according to vendor specifications (TRIzol™, GIBCO BRL). After reverse-transcription of 5 μg of total RNA by SuperScript™ II RT (GIBCOBRL) the resulting single stranded cDNA was amplified by PCR (BIOMETRA TGRADIENT, Göttingen, Germany) using specific primers for ICAM-1 (([…] (SEQ ID NO:11) and […] (SEQ ID NO:12)); VCAM-1 (([…] (SEQ ID NO:13) and […] (SEQ ID NO:14)); PECAM-1 (([…] (SEQ ID NO:15) and […] (SEQ ID NO:16)); E-selectin (([…] (SEQ ID NO:17) and […] (SEQ ID NO:18)); and β-actin ((TACCTCATGAAGATCCTCA (SEQ ID NO:19) and TTCGTGGATGCCACAGGAC (SEQ ID NO:20))) synthesized by the Molecular Biology Resource Facility, University of Oklahoma Health Sciences Center. The thermocycler conditions for ICAM-1 and VCAM-1 were 95° C. for 5 min initially, with 30 cycles at 95° C. for 1 min, 58° C. for 45 sec, 72° C. for 1 min followed by a final extension at 72° C. for 7 min. The conditions for E-selectin were 95° C. for 5 min initially, with 30 cycles at 94° C. for 1 min, 58° C. for 1 min, 72° C. for 1 min followed by a final extension at 72° C. for 5 min. The conditions for PECAM-1 were 95° C. for 5 min initially, with 30 cycles at 95° C. for 45 sec, 60° C. for 1 min, 72° C. for 1 min followed by a final extension at 72° C. for 5 min.
(§4) Amplified DNA fragments were separated by electrophoresis on a 1% agarose gel and visualized by exposure to UV after ethidium bromide (0.5 μg/ml) staining. Expected sizes for ICAM-1, VCAM-1, PECAM-1, E-selectin and β-actin were 943 bp, 700 bp, 677 bp, 315 bp and 267 bp, respectively. To assess the integrity of the cDNA, primers for human β-actin were used.

VCAM-1 = experiment: RT-PCR of adhesion molecule mRNA in HCEC; conditions: CAP37 1 μg/ml, 0-24 hr
Experimental: as §3, §4

ICAM-1 = experiment: RT-PCR of adhesion molecule mRNA in HCEC; conditions: CAP37 1 μg/ml, beginning at 2 hr and lasting through 24 hr
Experimental: as §3, §4

B1: CAP37: Cationic Antimicrobial Protein of Mr 37 kDa; recombinant protein from human 293 cells, identical to native PMN-derived CAP37 (SEQ ID NO:1) (protein, listed as Homo sapiens)
chain: IVGGRKARPRQFPFLASIQNQGRHFCGGALIHARFVMTAASCFQSQNPGVSTVVLGAYDLRRRERQSRQTFSISSMSENGYDPQQNLNDLMLLQLDREANLTSSVTILPLPLQNATVEAGTRCQVAGWGSQRSGGRLSRFPRFVNVTVTPEDQCRPNNVCTGVLTRRGGICNGDGGTPLVCEGLAHGVASFSLGPCGRGPDFFTRVALFRDWIDGVLNNPGP
Effect of CAP37 on integrin αv β 3 (CD51/CD61) (αv β 3 (CD51/CD61)): Low constitutive expression - no upregulation
Effect of CAP37 on integrin α4 (CD49d) (α4 (CD49d)): Low constitutive expression - no upregulation
Effect of CAP37 on integrin α1 (CD49a; VLA-α1) (α1 (CD49a; VLA-α1)): Constitutive expression - no upregulation
CD49c protein levels (α3 (CD49c); 48 and 72 hr): returned back to constitutive levels
Level of CD49c protein expression (α3 (CD49c); 4 hr to 24 hr): sustained through 24 hr
Effect of CAP37 on integrin α3 (CD49c) (α3 (CD49c); HCEC, flow cytometry): High constitutive expression - significant
Time of initial upregulation of CD49c (α3) (α3 (CD49c); HCEC, flow cytometry): 4 h
Effect of CAP37 on integrin α2 (CD49b; VLA-α2) (α2 (CD49b; VLA-α2)): Constitutive expression - no upregulation
Upregulation of CD29 (β1) (β 1 (CD29); 6 hr): clearly significant
Upregulation of CD29 (β1) (β 1 (CD29); 72 hr): still significantly elevated above background constitutive levels
Effect of CAP37 on integrin β 1 (CD29) (β 1 (CD29); HCEC, flow cytometry): Constitutive expression - significant upregulation
Effect of CAP37 on integrin β 4 (CD104) (β 4 (CD104)): Constitutive expression - no upregulation
Effect of CAP37 on integrin β 2 (CD18) (β 2 (CD18)): No constitutive expression - no upregulation
Time PECAM-1 message first detected after stimulation (PECAM-1): 2 h
Time of maximum PECAM-1 message (PECAM-1): 4 h
PECAM-1 message (PECAM-1; transient, not detected after 6 hr): upregulated
mRNA expression of VCAM-1 (VCAM-1): did not show increase in mRNA expression
ICAM-1 message (ICAM-1): clear upregulation of ICAM-1 message
